Measurements: publication PMC5976746

How the values were obtained:
[1] = biological target: BG505 NFL (native flexibly linked) HIV-1 envelope glycoprotein trimer from 293F cells (HIV-1); experiment: SEC; Superdex 200 (S200) after lectin-affinity column; UV absorbance at 280 nm
[2] = biological target: BG505 NFL (native flexibly linked) HIV-1 envelope glycoprotein trimer from CHO-M cells (HIV-1); experiment: as above
[3] = biological target: BG505 NFL (native flexibly linked) HIV-1 envelope glycoprotein trimer from CHO-M cells (HIV-1); experiment: native gel or EMSA; blue-native PAGE of SEC fractions (F4-F9) of lectin-purified pool Z supernatant
[4] = biological target: BG505 NFL (native flexibly linked) HIV-1 envelope glycoprotein trimer from CHO-M cells (HIV-1); experiment: negative-stain electron microscopy; peak SEC fraction from pool Z; 2% uranyl formate, 2D class averages

Substance	stoichiometry N [1]	stoichiometry N [2]	stoichiometry N [3]	stoichiometry N [4]
BG505 NFL (native flexibly linked) HIV-1 envelope glycoprotein trimer from 293F cells	3	–	–	–
BG505 NFL (native flexibly linked) HIV-1 envelope glycoprotein trimer from CHO-M cells	–	3	3	3
